# Reference: PMC12259117 (bioRxiv, 2025)
# T1: ParB CTD (Bacillus subtilis, UniProt P26497 217-282)
# T1 sequence: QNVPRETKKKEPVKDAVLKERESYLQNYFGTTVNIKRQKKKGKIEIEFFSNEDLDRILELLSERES
# B1: BsParB(A232G), full length (natural protein)
# chain: MAKGLGKGINALFNQVDLSEETVEEIKIADLRPNPYQPRKHFDDEALAELKESVLQHGILQPLIVRKSLKGYDIVAGERRFRAAKLAGLDTVPAIVRELSEALMREIALLENLQREDLSPLEEAQAYDSLLKHLDLTQEQLAKRLGKSRPHIANHLRLLTLPENIQQLIAEGTLSMGHGRTLLGLKNKNKLEPLVQKVIAEQLNVRQLEQLIQQLNQNVPRETKKKEPVKDGVLKERESYLQNYFGTTVNIKRQKKKGKIEIEFFSNEDLDRILELLSERES
# B2: BsParB(K252A-K255A-K259A) (natural protein)
# chain: MAKGLGKGINALFNQVDLSEETVEEIKIADLRPNPYQPRKHFDDEALAELKESVLQHGILQPLIVRKSLKGYDIVAGERRFRAAKLAGLDTVPAIVRELSEALMREIALLENLQREDLSPLEEAQAYDSLLKHLDLTQEQLAKRLGKSRPHIANHLRLLTLPENIQQLIAEGTLSMGHGRTLLGLKNKNKLEPLVQKVIAEQLNVRQLEQLIQQLNQNVPRETKKKEPVKDAVLKERESYLQNYFGTTVNIARQAKKGAIEIEFFSNEDLDRILELLSERES
# B3: BsParB(K255A), full length (natural protein)
# chain: MAKGLGKGINALFNQVDLSEETVEEIKIADLRPNPYQPRKHFDDEALAELKESVLQHGILQPLIVRKSLKGYDIVAGERRFRAAKLAGLDTVPAIVRELSEALMREIALLENLQREDLSPLEEAQAYDSLLKHLDLTQEQLAKRLGKSRPHIANHLRLLTLPENIQQLIAEGTLSMGHGRTLLGLKNKNKLEPLVQKVIAEQLNVRQLEQLIQQLNQNVPRETKKKEPVKDAVLKERESYLQNYFGTTVNIKRQAKKGKIEIEFFSNEDLDRILELLSERES
# B4: BsParB(K257A), full length (natural protein)
# chain: MAKGLGKGINALFNQVDLSEETVEEIKIADLRPNPYQPRKHFDDEALAELKESVLQHGILQPLIVRKSLKGYDIVAGERRFRAAKLAGLDTVPAIVRELSEALMREIALLENLQREDLSPLEEAQAYDSLLKHLDLTQEQLAKRLGKSRPHIANHLRLLTLPENIQQLIAEGTLSMGHGRTLLGLKNKNKLEPLVQKVIAEQLNVRQLEQLIQQLNQNVPRETKKKEPVKDAVLKERESYLQNYFGTTVNIKRQKKAGKIEIEFFSNEDLDRILELLSERES
# B5: BsParB(K259A), full length (natural protein)
# chain: MAKGLGKGINALFNQVDLSEETVEEIKIADLRPNPYQPRKHFDDEALAELKESVLQHGILQPLIVRKSLKGYDIVAGERRFRAAKLAGLDTVPAIVRELSEALMREIALLENLQREDLSPLEEAQAYDSLLKHLDLTQEQLAKRLGKSRPHIANHLRLLTLPENIQQLIAEGTLSMGHGRTLLGLKNKNKLEPLVQKVIAEQLNVRQLEQLIQQLNQNVPRETKKKEPVKDAVLKERESYLQNYFGTTVNIKRQKKKGAIEIEFFSNEDLDRILELLSERES
# B6: BsParB(K252A), full length (natural protein)
# chain: MAKGLGKGINALFNQVDLSEETVEEIKIADLRPNPYQPRKHFDDEALAELKESVLQHGILQPLIVRKSLKGYDIVAGERRFRAAKLAGLDTVPAIVRELSEALMREIALLENLQREDLSPLEEAQAYDSLLKHLDLTQEQLAKRLGKSRPHIANHLRLLTLPENIQQLIAEGTLSMGHGRTLLGLKNKNKLEPLVQKVIAEQLNVRQLEQLIQQLNQNVPRETKKKEPVKDAVLKERESYLQNYFGTTVNIARQKKKGKIEIEFFSNEDLDRILELLSERES
# B7: BsParB(K256A), full length (natural protein)
# chain: MAKGLGKGINALFNQVDLSEETVEEIKIADLRPNPYQPRKHFDDEALAELKESVLQHGILQPLIVRKSLKGYDIVAGERRFRAAKLAGLDTVPAIVRELSEALMREIALLENLQREDLSPLEEAQAYDSLLKHLDLTQEQLAKRLGKSRPHIANHLRLLTLPENIQQLIAEGTLSMGHGRTLLGLKNKNKLEPLVQKVIAEQLNVRQLEQLIQQLNQNVPRETKKKEPVKDAVLKERESYLQNYFGTTVNIKRQKAKGKIEIEFFSNEDLDRILELLSERES
# B8: BsParB(K252A-K259A) (natural protein)
# chain: MAKGLGKGINALFNQVDLSEETVEEIKIADLRPNPYQPRKHFDDEALAELKESVLQHGILQPLIVRKSLKGYDIVAGERRFRAAKLAGLDTVPAIVRELSEALMREIALLENLQREDLSPLEEAQAYDSLLKHLDLTQEQLAKRLGKSRPHIANHLRLLTLPENIQQLIAEGTLSMGHGRTLLGLKNKNKLEPLVQKVIAEQLNVRQLEQLIQQLNQNVPRETKKKEPVKDAVLKERESYLQNYFGTTVNIARQKKKGAIEIEFFSNEDLDRILELLSERES
# Target: the molecule itself
# Test: SEC-MALS
Binder,stoichiometry N,binding result
B1,2,–
B2,–,binds
B3,2,–
B4,2,–
B5,2,–
B6,2,–
B7,2,–
B8,–,binds

# Target: T1, ParB CTD
# Test: NMR
row,Binder,binding result
1,GCGTACATCATTCCCTGATGTACGC (structured_DNA) [10-bp hairpin DNA],binds
